# Assay results published in IntAct's records for PubMed 17496150.
# B1: "Peptide-N(4)-(N-acetyl-beta-glucosaminyl)asparagine amidase" (Mus musculus), Q9JI78 (parent)
# chain: MASATLGSSSSSASPAVAELCQNTPETFLEASKLLLTYADNILRNPSDEKYRSIRIGNTAFSTRLLPVRGAVECLFEMGFEEGETHLIFPKKASVEQLQKIRDLIAIERSSRLDGSSKKVQFSQHPAAAKLPLEQSEDPAGLIRHSGNQTGQLPSLPSAPMVVGDSTILKVLQSNIQHVQLYENPVLQEKALTCIPVSELKRKAQEKLFRARKLDKGTNVSDEDFLLLELLHWFKEEFFRWVNNIVCSKCGGETRSRDEALLPNDDELKWGAKNVENHYCDACQLSNRFPRYNNPEKLLETRCGRCGEWANCFTLCCRALGFEARYVWDYTDHVWTEVYSPSQQRWLHCDACEDVCDKPLLYEIGWGKKLSYIIAFSKDEVVDVTWRYSCKHDEVMSRRTKVKEELLRETINGLNKQRQLSLSESRRKELLQRIIVELVEFISPKTPRPGELGGRVSGSLAWRVARGETGLERKEILFIPSENEKISKQFHLRYDIVRDRYIRVSDNNINISGWENGVWKMESIFRKVEKDWNMVYLARKEGSSFAYISWKFECGSAGLKVDTVSIRTSSQSFESGSVRWKLRSETAQVNLLGDKNLRSYNDFSGATEVTLEAELSRGDGDVAWQHTQLFRQSLNDSGENGLEIIITFNDL
# Variants of: B1
# Conditions: with tera_mouse Vcp
row,effect of a mutation on the interaction,Variant
1,disrupting interaction strength,R55E

# Variants of: B1
# Conditions: with tera_mouse Vcp
# Remark: another data set of the same source
row,effect of a mutation on the interaction,Variant
1,disrupting interaction strength,N58D
